Among the data in the supplement of paper PMC12042874 are amyloid nucleation score values, retold here.

± gives the uncertainty stated by the source.

A short description of this series: amyloid nucleation score (Sup35N fusion, yeast selection) (log enrichment); library NNK1; higher = more nucleation; inactive = no reads after selection. An outline of the steps:
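The nucleation score is the DiMSum log enrichment of output over input reads, centred on the mode score of non-aggregating sequences. Only sequences with 100 or more input reads were scored, using Illumina sequencing of input and output plasmid inserts. Psi-negative yeast expressing Sup35N fused to peptides of 20 random codons were induced 24 hours with 100 μM copper sulfate and grown 7 days at 30°C on medium lacking adenine and uracil.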
For RVFLQTGWVCGVRHANNRLR, the amyloid nucleation score was -0.006 ± 0.87.
For the substance GWQRSRVAVAPVVVTQSCGV, the amyloid nucleation score is -0.671 ± 1.6.
With LSGMDTLGIVRCAVA, the amyloid nucleation score was -0.325 ± 0.46.
Regarding AVCYHGFRMATAASEVCGAS, the amyloid nucleation score was found to be 0.327 ± 0.38.
Regarding FNYNLCMFMHSVELFLIKIE, the amyloid nucleation score worked out at 8.162 ± 0.075.
Turning to SNECLRNGAFYDCPVREAWM, the amyloid nucleation score is -0.346 ± 0.27.
On to TLSPTAGPAVVALILYGSLT, for which the amyloid nucleation score came out at 1.17 ± 0.65.
To QLFVRFGRSARLVIAESQKA belongs -0.077 ± 0.33.
GVFVKGWYWKWGMGDELQAA: the amyloid nucleation score was 0.182 ± 0.79.
Substance IPMPMLRRKKTGYLLSTGSA returned an amyloid nucleation score of 0.532 ± 0.49.
To LLRYITARETSLTQSQP belongs 0.298 ± 0.53.
FLSGYGSCLELANVIRWLEN had an amyloid nucleation score of 1.19 ± 0.69.
With GWKVCN the figure was 0.362 ± 1.4; with SKCDQSIRYSRGNETPLDSL, 0.274 ± 0.83; with LDWLMGGRTA, -0.598 ± 1.7.
To FFLVRMCKSRDVTVTVGGSH belongs 1.53 ± 0.14; to ILYFMLSRFTVVN, 0.881 ± 0.76; to LAAVQTDMFISTLLECLDDK, 1.08 ± 0.35.
Regarding LLVWNVNGSAMSCNDRCLQS, the amyloid nucleation score worked out at 7.141 ± 0.049.
To YQYNATFFPSITRTNLETKG belongs 0.337 ± 0.49.
On to SVNRCGVYFTEGFFSLRWS, for which the amyloid nucleation score is 1.13 ± 0.25.
To TIVFMRAHIFW belongs 0.788 ± 0.25; to ITFIVAGI, -0.113 ± 0.21.
To SCPGK belongs 0.001 ± 0.44; to GLLIFMITTLPFCFWCTVPR, “inactive”; to PRELEKFTLQKSGLHPWISL, -0.686 ± 1.4.
ILKSSGICFDGLPTKFNL gave an amyloid nucleation score of 0.127 ± 0.25.
Regarding LGNIKFITYVERCTQEVVSY, the amyloid nucleation score is -1.49 ± 1.8.
The substance GGPVREYTRMSPSVGVLDEA came in with an amyloid nucleation score of 0.489 ± 0.86.
EHTRKGGSCNMLQRQPFCCT had an amyloid nucleation score of 0.487 ± 0.52.
GYSYFPNYHVFRVHE registered an amyloid nucleation score of 1.27 ± 0.54.
With CYTLFAVVNMLLVFNWQCRD the figure was -0.34 ± 0.36; with HFRVSDKDL, 1.2 ± 0.38.
As for LSSRHVAGYQEYLNDL, the amyloid nucleation score is -0.88 ± 0.72.
As to VKMYRAFIQGYGSLDRRQFP, the amyloid nucleation score came out at 0.45 ± 0.42.
For VVMLSVSPLTIHRGSFRDCS, the amyloid nucleation score came out at 2.97 ± 0.1.
WSSYTFR yielded an amyloid nucleation score of 0.839 ± 0.63.
In the case of NTVIVPHLIILLDYSKVWAE, the amyloid nucleation score is 3.28 ± 0.069.
Turning to WFLCSSRFISLLQ, the amyloid nucleation score was -1.49 ± 0.47.
YPGQARNRVLCCGWKFFIDQ gave an amyloid nucleation score of 3.39 ± 0.15.
Substance AILFLFFN registered an amyloid nucleation score of 2.66 ± 0.14.
With CYVSS the figure was -0.548 ± 0.53; with EKTYSCHECFFIWPRSY, -1.09 ± 0.75.
For LKGVIYAVANWGWIISGHEV, the amyloid nucleation score came to 0.837 ± 0.23.
In the case of NNKSEVF, the amyloid nucleation score was 1.46 ± 0.74.
To ITCSHPQRMLVCSCKSPWCF belongs 3.31 ± 0.13; to LGYVYSKSTSSTQSLFICSG, -0.287 ± 0.26; to VYTKYICWGCVNAQRFDHGT, 8.269 ± 0.049.
On to NLGYDCGLGAMSGWMRWLIS, for which the amyloid nucleation score came out at 0.459 ± 0.64.
On to VGRFLSYGRWLA, for which the amyloid nucleation score was -0.393 ± 0.42.
Substance RFDVSMRYLSRSDVYDICAR showed an amyloid nucleation score of 0.177 ± 0.59.
The substance NLSIYIYSNNLLLNVF had an amyloid nucleation score of 6.194 ± 0.052.
PIKVMIFVCNGFRKWHLMQH showed an amyloid nucleation score of 0.268 ± 1.1.
For IMAFNDRDHG, the amyloid nucleation score was -0.093 ± 0.21.
To IKRKSAESNGCSLYLYDSLK belongs -0.189 ± 0.43.
The substance HHHLNYTINIRQSYFVMCGG displayed an amyloid nucleation score of 5 ± 0.071.
With TVEGSRYFRSSLYHSARSHW the figure was 1.14 ± 0.55; with VFFYSRT, 3.02 ± 0.08; with CPVRSRIVVRCLYFSHMRST, 0.263 ± 1.1.
To IDWQLTSLDQGSCFLA belongs -0.468 ± 0.88; to NTTYQTYR, 4.31 ± 0.074; to RFTSDAQ, -0.524 ± 0.24.
For the substance WSFLDWWIRSRSLITVCVVS, the amyloid nucleation score is -0.348 ± 0.46.
For the substance RVITYSV, the amyloid nucleation score was -0.016 ± 1.4.
In turn, LMYSNRYF yielded an amyloid nucleation score of 4.1 ± 0.079.
With WISEYGWFRIKFAWAAYGYR the figure was -0.023 ± 0.72; with KDTQCHIARATRRGVRGNVF, -0.48 ± 1.1; with VLGMPSLRILYITCCSDMVC, 6.37 ± 0.046.
In the case of VRMIFVQCWKCTESNFCERN, the amyloid nucleation score was -0.174 ± 0.66.
KLVLLGNK: the amyloid nucleation score amounted to 0.134 ± 0.5.
For the substance LVYGKPVNHAEGSDDSTHNG, the amyloid nucleation score was found to be 0.205 ± 0.6.
YQETPVNPEPVV: the amyloid nucleation score was -0.01 ± 0.38.
The substance VQFSLGALFWWPWGR returned an amyloid nucleation score of 2.27 ± 0.22.
VGVVGDYDLQIS: the amyloid nucleation score is -1.2 ± 2.4.
For the substance FFSYRDSISVKR, the amyloid nucleation score is -0.449 ± 0.75.
As for FKSVFVRTIHATYIVSWAN, the amyloid nucleation score was -0.413 ± 1.5.
Substance PWVTLVRAMCMFINVDLVSR returned an amyloid nucleation score of 0.201 ± 0.72.
As for LMSLIMI, the amyloid nucleation score was 0.032 ± 0.44.
On to VWNYVYGMMWCM, for which the amyloid nucleation score came out at 5.54 ± 0.09.
Turning to VFALMRISSNSMSKCQFVCD, the amyloid nucleation score was -0.187 ± 0.39.
To SHNGCKIWGMDNLIVH belongs -0.616 ± 0.46; to LLVSLSNCFLIWSSAGSMGG, 1.81 ± 0.23; to LAYKNSLWGLLWKRF, -0.011 ± 0.49.
With VGGGSRWDIRDNSNQSIIPM, the amyloid nucleation score is -0.338 ± 0.34.
Consider WDLCISINYSVFLNLACSV, for which the amyloid nucleation score amounted to 3.25 ± 0.098.
In the case of WEVVMWRYCAPRTGVLPQKP, the amyloid nucleation score was -0.535 ± 1.2.
With RFLSQNGNLIPGRRLPTGVR, the amyloid nucleation score was 0.54 ± 0.54.
Substance NTKELVYKMGCGVRYHGKWG came in with an amyloid nucleation score of 1.28 ± 0.71.
Turning to HTLDSISGSCGPLIAIVDFQ, the amyloid nucleation score entry was “inactive”.
For SFSTKPTCRPPILHSLERVT, the amyloid nucleation score came out at 3.62 ± 0.064.
In the case of SLYTKWKSILPNWVFVCIAL, the amyloid nucleation score was -1.35 ± 0.38.
SSYRNWYRRSGDQLYYLEP displayed an amyloid nucleation score of 0.876 ± 0.42.
In turn, FKRFLSLVCV yielded an amyloid nucleation score of 0.1 ± 0.53.
The substance YPLTSHYLLTR showed an amyloid nucleation score of 0.038 ± 0.64.
Substance MLISSILTYIKVSGYCPGCT displayed an amyloid nucleation score of 0.347 ± 0.52.
To QVFVIIIFPCMQWYDMYCSD belongs 0.356 ± 0.55.
With LTSFETFQNFNMAVMYAR the figure was -0.236 ± 0.65; with QVSANSY, 3.59 ± 0.082.
Take GVDRVRQCRARALDFSIGS: the amyloid nucleation score is -0.372 ± 0.62.
In turn, RSSSYNSLIRKISDKLVGAA showed an amyloid nucleation score of 1.09 ± 0.56.
YELAMECYVSWVLLYVA gave an amyloid nucleation score of 0.362 ± 0.32.
In turn, RLEYCSRRWLANTLSGGRSL showed an amyloid nucleation score of 0.002 ± 0.96.
Substance DSTLTVKFLMMVRYMVCSVG had an amyloid nucleation score of 1.71 ± 0.25.
With FYYGSVSLSWF the entry was “inactive”.
With SPKPYFSRKYVIKIHKRS the figure was -1.54 ± 1.4; with SRVLRPS, -0.174 ± 0.4.
With PYKLFHVVSCCRTQGDNVAK the figure was -0.813 ± 0.49.
Turning to RCVAPAV, the amyloid nucleation score is 0.151 ± 0.56.
In turn, IIGQYMQFAYFSVDRTL came in with an amyloid nucleation score of 0.871 ± 0.38.
In turn, QGSDAYHSMNMQLWVSRTLT had an amyloid nucleation score of 0.18 ± 0.36.
As to EDTSMELWVSAGIRGGLPLV, the amyloid nucleation score was -1.13 ± 0.94.
On to SFVCRCFSMCNGEILFLIPY, for which the amyloid nucleation score stood at 0.644 ± 1.
Take VLYQRVRTGTTYGRARRLDV: the amyloid nucleation score is -0.622 ± 1.7.
To MSDLLSVVN belongs 0.142 ± 0.81; to FGLEK, 1.25 ± 0.64; to LLRLFALLTLNNLV, -0.296 ± 0.31.
For IMRYLGVKKVE, the amyloid nucleation score was -0.245 ± 0.4.
With HVGRHTTTGHAGFCNCGNPN the figure was 3.46 ± 0.17; with IRKRDFGYKSLFPNGTAMIH, -0.83 ± 0.88.
With YGYRSRSLSFCLD, the amyloid nucleation score result is “inactive”.
To TYYGVSPDTASNAACLYPRH belongs -0.746 ± 1.9.
On to VITFITSL, for which the amyloid nucleation score was determined as 3.85 ± 0.064.
In turn, YIVGPIGVFSY returned an amyloid nucleation score of 2.25 ± 0.55.
SADPSNYRERIFLKLMKLHG: the amyloid nucleation score is -0.514 ± 0.37.
Take NMYNVRLFVPHFSLECLTWY: the amyloid nucleation score came to 2.87 ± 0.12.
Regarding MLNINVTYGFGDLREWNRIF, the amyloid nucleation score is 1.16 ± 0.13.
To DRITLLRYPWKSIAISIDEG belongs 0.993 ± 0.36.
With GPRFNVALES the figure was -0.347 ± 0.38.
Take VCRRVHGSMP: the amyloid nucleation score was -0.236 ± 1.2.
GRLMTFSINRRNVWKCDGSR: the amyloid nucleation score was -0.207 ± 1.1.
As to RNHCVYLECFDLVNHWMPKD, the amyloid nucleation score is -0.24 ± 0.64.
To DSSLCFGSYLWLVAMSLK belongs -0.489 ± 0.75.
For the substance CREVAKFGKLSNRQSRGCAI, the amyloid nucleation score was -0.951 ± 1.4.
With YLLRVCAAMMFSKLCNG the figure was 6.028 ± 0.049.
As for NWRFGLYSHIGIWLMVKS, the amyloid nucleation score stood at 1.86 ± 0.38.
On to FRSNGQNLVTAISSMDVRAN, for which the amyloid nucleation score is -2.14 ± 2.7.
Regarding YILWHEIFQDCLTRDIIRLM, the amyloid nucleation score amounted to 0.248 ± 0.54.
With LMMQRERPFRLYL the figure was -1.34 ± 1.6.
To LWYSFNVHTVHYYQCSDIYS belongs -0.142 ± 0.26; to FFSPSNKNYKR, -0.215 ± 0.35; to ILLGYGQSMSRHIPTDKNEL, -0.79 ± 0.74.
